Reference: patent US20240392013A1, “IL1RAP ANTIBODIES AND USES THEREOF” (STELEXIS THERAPEUTICS, LLC, priority 2021, published 2024)

Experiments:
AML cells (THP-1) = test: Proliferation of AML cells (THP-1), Cell-Titer Glo; assay type: cell-based, human; settings: 66 nM, 4 days
Experimental: AML patient samples or cancer cells (AML and CML) were plated at density of 3×10^3 cells/well in two 96-well plates and incubated overnight at 37° C./5% CO2 in humidified incubator. The next day (Day 1) cells in one of the plates were treated with IL1RAP antibody at 10-150 μg/ml at a total volume of 100 μl. Plates were kept at 37° C./5% CO2 in humified for 3-6 days. Cells treated with vehicle or IgG served as controls and every treatment was conducted in triplicates. The second plate was treated on Day 1 with media and cell proliferation was measured on the same day by CellTiter-Glo (Promega, Cat #G7572). In more details, wells were mixed with equal volume (100 μl) of CellTiter-Glo and agitated for 2 minutes followed by 10 minutes incubation at room temperature in the dark. Luminescence signal was measured in Cytation™ (Biotek) plate reader. After 3-6 days, cell proliferation in the […] plates was measured separately in the same way.

[1] = tested on: IL1-induced downstream signaling (phospho-ERK, AKT, p38, NFκB) in A6L, CAL33, 5637, A549, Colo205, HCC70 cells; test: IL1 signaling in solid tumor cancer cells, Western blot; assay type: cell-based; settings: antibody 20 μg/ml
Experimental: (§1) AML patient samples or cancer cells (AML, chronic myelogenous leukemia (CML), pancreatic, head and neck squamous cell carcinoma (HNSCC), bladder, non-small-cell lung carcinoma (NSCLC), colorectal and triple-negative breast cancer (TNBC)) were seeded in 6-well plates (5×10^5 cells/well) and incubated overnight at 37° C./5% CO2 in humified incubator. In experiments conducted in cancer cell lines, cells were washed 2× with PBS and serum-starved for 3 hours. Following, cells were treated with IL1RAP antibodies at concentration of 20 μg/ml and incubated for 1 h at 37° C./5% CO2 in humidified incubator. After 1 h, cells were treated with IL1β (Invivogen, cat: rcyec-hil1b), IL33 (Adipogen, cat: AG-40B-0160-C010) or IL36 cytokines (R@D, cat: 6836IL) at 100 ng/ml and incubated for 15 more minutes. Cells were harvested on ice after 1× wash with cold PBS and were centrifuged for 5 minutes at 5000 rpm at 4° C. Cells were then lysed with NP-40 buffer for 5 minutes on ice and centrifuged for 15 minutes at 15000 rpm at 4° C. Supernatants were collected and protein concentrations were determined by BCA (Thermofisher, Cat #PI23225). […] After 3× washes, ECL was applied (Thermofisher, Cat #32106) and proteins were detected after exposure to autoradioraphic films (Worldwide medical products, Cat #41101001) and protein intensity was quantitated using ImageJ software.

AML patient samples = test: Clonogenic capacity of AML patient samples; assay type: cell-based, human; settings: 333 nM, two weeks
Experimental: AML patient samples or healthy control samples (4000 cells) were washed and resuspended in 30 μl Iscove's Modified Dulbecco's Medium (IMDM) media supplemented with 2% FBS. Cells […] were mixed with 3 ml methylcellulose (MthoCult H4034 Optimum) supplemented with pen/strep or primocin (100 μg/ml) and IL1RAP antibodies (333 nM) and 1 ml were seeded in 35 mm dishes in duplicates. The dishes were incubated at 37° C./5% CO2 in humidified incubator for 14-16 days. Colonies were counted using inverted microscope.

SK-MEL-5 cells = test: Jurkat-Lucia NFAT-CD16 ADCC reporter assay against SK-MEL-5 cells; assay type: cell-based; settings: SK-MEL-5 target cells
From the text: Methods: ADCC activity is mediated through binding of NK cell's CD16 receptors to the Fc region of antibodies. A Jurkat-Lucia NFAT-CD16 ADCC Reporter cell assay (Invivogen, Cat #jktl-nfat-cd16; https://www.invivogen.com/jurkat-lucia-nfat-adcc-adcp-cells) was used to analyze IL1RAP mAb STLX2012 for ADCC activity. Briefly, the Jurkat cell line was engineered to express the cell surface Fc receptor CD16A (FcγRIIIA) and the Lucia luciferase reporter gene. ADCC is triggered by CD16A cross-linking upon antigen-bound antibody binding at the surface of immune effector cells. Cells are maintained in the presence of zeocin (100 μg/ml) and blasticidin (10 μg/ml).
The STLX2012-DLE antibody was then analyzed for ADCC activity using the Jurkat-Lucia NFAT-CD16 ADCC Reporter cell assay, described in Example 11 above.

[2] = tested on: IL33-induced downstream signaling (phospho-ERK, p38, NFκB) in AML patient samples; test: IL33 signaling in AML patient samples, Western blot; assay type: cell-based, human; settings: antibody 20 μg/ml, IL33 100 ng/ml
Experimental: as §1

[3] = tested on: IL33-induced NFκB activity; test: HEK-BlueIL33 NFκB Reporter Assay; assay type: cell-based, human; settings: nM range, read-out: IC50, inhibition of IL33-induced NFκB activity
From the text: HEK-Blue IL33 (Invivogen, Cat #hkb-hil33) cell line was used to monitor NFκB activity upon stimulation with IL33 cytokine. The secreted embryonic alkaline phosphatase reporter gene (SEAP) is inducible expressed under the control of IFN-β minimal promoter fused to NFκB/AP-1. HEK-BlueIL33 cells were also generated upon stable transfection with human IL1RL1 (ST2) gene. Specificity to IL33 cytokine was achieved by blockage of TNF-α and IL1 response. Cells are maintained in the presence of hygromycin (200 μg/ml), zeocin (100 μg/ml) and blasticidin (10 μg/ml).
For the functional assay, cells were plated at a density of 5×10^4 cells/well in 96-well plates. Cells were treated with each antibody at the highest concentration of 200 μg/ml followed by seven serial 1:3 dilutions and incubated for 45 minutes at 37° C./5% CO^2 in humified incubator. Cells were then stimulated with IL33 (12 μM) and incubated overnight at 37° C./5% CO2 in humified incubator. Every treatment was conducted in triplicates. Following, supernatants from each well were mixed with Quanti-Blue substrate (Invivogen, Cat #rep-qb1) according to manufacturer's recommendations and secreted SEAP was measured using spectrophotometer at 650 nm.

Row | Molecule | Inhibition of cell proliferation (AML cells (THP-1)) | Inhibition of IL1 signaling (phosphorylation of ERK, AKT, p38 and NFκB) [1] | Inhibition of clonogenic capacity (colony formation) (AML patient samples) | ADCC activity (reporter) (SK-MEL-5 cells) | Inhibition of IL33 signaling (phosphorylation of ERK, p38 and NFκB) [2] | IC50 [3] [nM]
1 | 74804_12A21B: anti-IL1RAP mAb; VH SEQ ID NO:6, VL SEQ ID NO:23, κ light chain (antibody, V domains shown, 74804_12A21B VH and 74804_29D13A VH; 74804_12A21B VL) VH: QVQLLQSGAEVKKPGSSVKVSCKASGGTFSIYAIDWVRQAPGQGLEWMGGIIPIFGTANSAQKFQGRVTITADKSTSTAYMELSSLRSEDTAVYYCARNGATSDAFDMWGQGTMVTVSS VL: EIVLTQSPGTLSLSPGERATLSCRASLSVSSNYLAWFQQRPGQAPRLLIHGVSRRATGIPDRFSGSGSGTDFTLTISRLEPEDFAVYYCQQYGSSPLTFGGGTKVEIK | inhibited cell proliferation | inhibited IL1 signaling in solid tumor cancer cells | inhibited the clonogenic capacity | showed ADCC activity | inhibited IL33 signaling in AML patient samples | 
2 | 74804_43F04A: anti-IL1RAP mAb; VH SEQ ID NO:7, VL SEQ ID NO:22, κ light chain (antibody, V domains shown, 74804_43F04A VH; 74804_07K10A VL, 74804_29D13A VL and 74804_43F04A VL) VH: QVQLLQSGAEVKKPGSSVKVSCKASGGTFSIYAIDWVRQAPGQGLEWMGGIIPIFGTENSAQNFQGRITITADKSTNTAYMELSSLRSEDTAVYYCARNGATSDAFDIWGQGTMVTVFS VL: EIVLTQSPGTLSLSPGERATLSCRASLSVSSNYLAWFQQRPGQAPRLLIYGVSRRATGIPDRFSGSGSGTDFTLTISRLEPEDFAVYYCQQYGSSPLTFGGGTKVEIK |  |  |  |  |  | 9.62
